From the supplement of paper PMC10567573

B1: TOR1AIP2 (parent)
chain: HHVADAYTSSQKVSPIQIDGAGRT
B2: ZBTB22 (parent)
chain: RPFDCPVCNKKFKMKHHLTEHMKT

Variants of: B1
Assay: protein stability index of a GFP-peptide fusion (GPS, HEK-293T) (PSI 1-6); higher = more stable
Conditions: c terminus: a fixed tail appended
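Also: lentivirally expressed fusions sorted by FACS into six bins by GFP to DsRed ratio, PSI derived from sequencing read proportions per bin multiplied by bin number.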

Protein stability index, by site and new letter:
V3: E 3.12 | M 2.92 | L 3.77 | Y 1.51 | R 2.95 | H 2.82 | N 2.04 | T 3.1 | C 1.75 | W 2.42 | I 4.2 | D 2.96 | G 2.73 | P 4.2 | Q 2.63 | K 3.19 | S 2.46 | F 2.34 | A 1.62
Y7: A 5.04 | S 4.87 | K 4.65 | F 2.73 | E 4.97 | T 4.98 | Q 4.5 | L 4.55 | V 4.62 | I 4.75 | G 4.6 | H 4.84 | P 4.91 | M 4.7 | C 4.19 | R 4.43 | D 4.67 | N 4.89
A4: T 2.27 | F 3.42 | M 4.01 | Y 4.04 | S 3.84 | H 3.43 | R 3.95 | P 2.34 | E 4.43 | G 4.25 | V 3.39 | C 2.84 | K 3.86 | I 3.01 | D 4.76 | L 3.99 | Q 3.67 | N 4.17 | W 3.57
H1: V 3.86 | T 3.94 | C 3.67 | L 3.81 | K 3.94 | W 3.68 | G 4.43 | Y 3.09 | F 2.69 | P 3.85 | A 4.54 | N 4.53 | S 4.3 | Q 4.15 | D 4.91 | M 3.93 | R 4.33 | I 3.14 | E 4.66
A6: R 3.95 | W 2.19 | H 3.85 | M 3.46 | I 3.67 | E 4.77 | F 2.69 | Q 4.32 | K 4.03 | P 4.3 | T 4.02 | N 4.26 | L 3.2 | Y 3.32 | S 4.14 | V 3.48 | C 3.98 | D 4.19 | G 4.39
H2: I 2.08 | V 1.99 | T 3.81 | D 4.75 | E 4.74 | C 3.5 | R 3.67 | N 4.27 | Q 2.51 | A 4.01 | S 4.08 | P 3.87 | K 4.32 | F 3.77 | M 2.81 | L 1.86 | G 4.15 | Y 3.4 | W 2.96
D5: V 2.7 | M 2.48 | I 2.5 | L 2.44 | P 3.54 | C 2.46 | F 2.24 | W 4.17 | G 3.97 | A 2.63 | E 2.73 | R 3.6 | N 3.33 | Q 2.93 | S 2.72 | H 2.38 | T 3.68 | Y 2.35 | K 3.19

Variants of: B2
Assay: as above
Conditions: c terminus: a fixed tail appended

Protein stability index: each site, then its substitutions
K23: N 3.29 | R 2.26 | W 1.98 | L 2.38 | S 2.4 | E 2.39 | V 2.37 | F 1.95 | T 2.38 | M 2.11 | H 3.06 | Q 3.34 | P 2.48 | G 2.99 | I 2.38 | Y 2.17
T24: A 2.87 | H 2.41 | V 2.34 | I 1.95 | S 2.53 | Q 2.53 | M 2.5 | W 2.22 | D 3.55 | K 2.43 | N 2.54 | C 3.07 | L 3.19 | E 3.21 | R 2.84 | P 2.45 | G 2.44 | Y 2.01 | F 2.46
